The target of assay [1] is T1, rat calcitonin receptor (rat, UniProt P32214 25-516).
T1 construct: whole, on cells; In cell membranes prepared from transiently transfected BHK tk'ts 13 cells (Assay VIII); also called rCTR; rat calcitonin (a) receptor
T1 sequence (looked up): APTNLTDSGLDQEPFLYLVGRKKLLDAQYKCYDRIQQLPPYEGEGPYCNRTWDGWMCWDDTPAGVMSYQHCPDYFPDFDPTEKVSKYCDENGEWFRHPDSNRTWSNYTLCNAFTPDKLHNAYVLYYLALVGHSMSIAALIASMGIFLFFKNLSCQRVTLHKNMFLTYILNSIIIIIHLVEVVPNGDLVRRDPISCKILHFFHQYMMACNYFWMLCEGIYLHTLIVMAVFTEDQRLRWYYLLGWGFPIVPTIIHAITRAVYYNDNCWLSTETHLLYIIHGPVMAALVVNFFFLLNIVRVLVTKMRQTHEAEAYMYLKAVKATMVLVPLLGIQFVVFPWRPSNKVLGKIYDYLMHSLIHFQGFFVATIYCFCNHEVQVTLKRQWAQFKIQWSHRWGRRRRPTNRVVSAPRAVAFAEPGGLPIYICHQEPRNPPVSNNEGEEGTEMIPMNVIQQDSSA
Kind of assay: SPA competition binding, displacement of 125I-Calcitonin from membranes of BHK tk'ts 13 cells with rat calcitonin receptor (Assay VIII).

For assay [2], the target named is T1, rat calcitonin receptor. Kind of assay: ratio of binding IC50s: rat calcitonin receptor (Assay VIII) over rat amylin receptor (Assay VI).
For assay [3], the target named is T2, rat amylin receptor (rat calcitonin receptor + rat RAMP 3) (rat, UniProt P32214 25-516; Q9JJ73 23-147).
T2 construct: whole, on cells; Receptor complex in cell membranes prepared from transiently transfected BHK tk'ts 13 cells (Assay VI); also called rAmylin-R; rat amylin 3(a) receptor
T2 sequence (looked up) 1: T1 sequence (looked up)
T2 sequence (looked up) 2: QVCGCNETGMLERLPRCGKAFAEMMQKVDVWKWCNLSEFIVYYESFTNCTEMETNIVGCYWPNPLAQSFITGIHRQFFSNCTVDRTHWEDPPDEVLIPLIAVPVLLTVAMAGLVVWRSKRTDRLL
Nature of the assay: SPA competition binding, displacement of 125I-rat amylin from membranes of BHK tk'ts 13 cells with rat calcitonin receptor + rat RAMP 3 (Assay VI). As for the experimental part:
The binding assay was performed using scintillation proximity assay (SPA) beads (RPNQ0001) from PerkinElmer and cell membranes from the Amylin 3(a)/CRE-luc cells (as described in Assay (II)) were used. Membranes were prepared in the following way; the cells were rinsed with PBS and incubated with Versene for approximately 5 min before harvesting. The cells were flushed with PBS and the cell-suspension was centrifuged for 5 min at 1000 rpm. Cells were homogenized (ultrathurrax) in a buffer containing 20 mM Na-HEPES and 10 mM EDTA (pH 7.4) and centrifuged at 20.000 rpm for 15 min. The resulting pellet was resuspended, homogenized and centrifuged (20.000 rpm, 15 min) in a buffer containing 20 mM Na-HEPES and 0.1 mM EDTA (pH 7.4, buffer 2). The resulting pellet was resuspended in buffer 2 and protein concentration was measured (BCA protein Assay, Pierce). The homogenate was kept cold during the whole procedure. The membranes were kept at −80° C. until use. The assay was performed in a 384 well Optiplate (PerkinElmer) in a total volume of 40 ul. Membranes were mixed with SPA beads. Final concentration of membranes 35 ng/μL final and SPA beads was 0.05 mg/well. Test-compounds were dissolved in DMSO and further diluted in assay buffer (50 mM Hepes, pH 7.4, 1 mM CaCl2, 5 mM MgCl₂, 0.1% OA and 0.02% Tween20). […] The final mixture was incubated with shaking at 400 rpm for 120 min at 25° C. prior to centrifugation (1500 rpm, 10 min). Samples were analyzed on TopCounter™ (Packard). The IC₅₀ was calculated using (one site binding competition analysis) GraphPad Prism5 as a measure of receptor affinity.
Cells were grown in DMEM with 10% FBS and 1% Pen/Strep. Approximately 48 hours after transfection, the cells were harvested and membranes were prepared.
(In general: Displacement assays read how much labelled ligand stays bound in the presence of the test substance.)

In assay [4] the target is T3, human calcitonin receptor (human, UniProt P30988 25-474).
T3 construct: whole, on cells; Cell membranes from the stably transfected cell line (Assay VII); also called hCTR; hCT
T3 sequence (looked up): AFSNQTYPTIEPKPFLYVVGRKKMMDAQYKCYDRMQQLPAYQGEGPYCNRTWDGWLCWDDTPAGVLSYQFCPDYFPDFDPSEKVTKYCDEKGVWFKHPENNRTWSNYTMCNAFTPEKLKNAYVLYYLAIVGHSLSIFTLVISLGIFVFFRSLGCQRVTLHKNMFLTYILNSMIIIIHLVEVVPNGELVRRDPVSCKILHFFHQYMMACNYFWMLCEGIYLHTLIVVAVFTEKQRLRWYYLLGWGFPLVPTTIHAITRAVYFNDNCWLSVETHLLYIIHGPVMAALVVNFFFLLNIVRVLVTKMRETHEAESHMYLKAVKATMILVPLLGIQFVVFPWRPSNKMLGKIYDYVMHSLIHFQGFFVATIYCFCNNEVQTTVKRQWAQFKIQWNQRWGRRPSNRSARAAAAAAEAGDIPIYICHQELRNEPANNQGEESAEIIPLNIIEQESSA
Nature of the assay: ratio of binding IC50s: human calcitonin receptor (Assay VII) over human amylin receptor (Assay V). As for the experimental part:
The resulting pellet was resuspended, homogenized and centrifuged (20.000 rpm, 15 min) in a buffer containing 20 mM Na-HEPES and 0.1 mM EDTA (pH 7.4, buffer 2). The resulting pellet was resuspended in buffer 2 and protein concentration was measured (BCA protein Assay, Pierce). The homogenate was kept cold during the whole procedure. The membranes were kept at −80° C. until use. The assay was performed in a 384 well Optiplate (PerkinElmer) in a total volume of 40 ul. Membranes were mixed with SPA beads. Final concentration of membranes 35 ng/μL final and SPA beads was 0.05 mg/well. Test-compounds were dissolved in DMSO and further diluted in assay buffer (50 mM Hepes, pH 7.4, 1 mM CaCl2, 5 mM MgCl₂, 0.1% OA and 0.02% Tween20). […] The final mixture was incubated with shaking at 400 rpm for 120 min at 25° C. prior to centrifugation (1500 rpm, 10 min). Samples were analyzed on TopCounter™ (Packard). The IC₅₀ was calculated using (one site binding competition analysis) GraphPad Prism5 as a measure of receptor affinity.
Membranes were prepared in the following way; the cells were rinsed with PBS and incubated with Versene for approximately 5 min before harvesting. The cells were flushed with PBS and the cell-suspension was centrifuged for 5 min at 1000 rpm. Cells were homogenized (Ultrathurrax) in a buffer containing 20 mM Na-HEPES and 10 mM EDTA (pH 7.4) and centrifuged at 20.000 rpm for 15 min. The resulting pellet was resuspended, homogenized and centrifuged (20.000 rpm, 15 min) in a buffer containing 20 mM Na-HEPES and 0.1 mM EDTA (pH 7.4, buffer 2). The resulting pellet was resuspended in buffer 2 and protein concentration was measured (BCA protein Assay, Pierce). The homogenate was kept cold during the whole procedure. The membranes were kept at −80° C. until use. Assay was performed in a 384 well Optiplate (PerkinElmer) in a total volume of 40 ul. Membranes were mixed with SPA beads.

Numbered stars: 1 amine (or outer) side, 2 acyl side, 3 side chain; on linkers, the order of the positions; unused ones are H or OH. Bridge positions count the residues as written; N and C are the ends. Side chains are listed from the residue outwards. Ends that are not written are not given here. * marks the point of attachment. C20 diacid = O=C(O)CCCCCCCCCCCCCCCCCCC(=O)*; γGlu = O=C(O)[C@H](CCC(=O)[*:2])N[*:1]

B1: N^ε1-[(4S)-4-carboxy-4-(19-carboxynonadecanoylamino)butanoyl]-[Asp14,Arg17,Pro21,Pro27,Pro34,Arg35]-h-amylin (peptide)
peptide: K([γGlu-C20 diacid])CNTATCATQRLADFLRHSSPNFGAIPSSTNVGPRTY-NH2
modifications: disulfide 2-7; N-terminus assumed
SMILES: CC[C@H](C)[C@H](NC(=O)[C@H](C)NC(=O)CNC(=O)[C@H](Cc1ccccc1)NC(=O)[C@H](CC(N)=O)NC(=O)[C@@H]1CCCN1C(=O)[C@H](CO)NC(=O)[C@H](CO)NC(=O)[C@H](Cc1c[nH]cn1)NC(=O)[C@H](CCCNC(=N)N)NC(=O)[C@H](CC(C)C)NC(=O)[C@H](Cc1ccccc1)NC(=O)[C@H](CC(=O)O)NC(=O)[C@H](C)NC(=O)[C@H](CC(C)C)NC(=O)[C@H](CCCNC(=N)N)NC(=O)[C@H](CCC(N)=O)NC(=O)[C@@H](NC(=O)[C@H](C)NC(=O)[C@@H]1CSSC[C@H](NC(=O)[C@@H](N)CCCCNC(=O)CC[C@H](NC(=O)CCCCCCCCCCCCCCCCCCC(=O)O)C(=O)O)C(=O)N[C@@H](CC(N)=O)C(=O)N[C@@H]([C@@H](C)O)C(=O)N[C@@H](C)C(=O)N[C@@H]([C@@H](C)O)C(=O)N1)[C@@H](C)O)C(=O)N1CCC[C@H]1C(=O)N[C@@H](CO)C(=O)N[C@@H](CO)C(=O)N[C@H](C(=O)N[C@@H](CC(N)=O)C(=O)N[C@H](C(=O)NCC(=O)N1CCC[C@H]1C(=O)N[C@@H](CCCNC(=N)N)C(=O)N[C@H](C(=O)N[C@@H](Cc1ccc(O)cc1)C(N)=O)[C@@H](C)O)C(C)C)[C@@H](C)O
One may read the IC50 as the concentration at which inhibition is half-maximal. On to B1, for which the IC50 with rat calcitonin receptor [1] amounted to 58.5 nM; in assay [3], 0.504 nM. The “Ratio rCT/rAmylin binding” value with rat calcitonin receptor [2] worked out at 116. Also, in assay [4], the “Ratio hCT/hAmylin binding” value was found to be 151.

B2: N^ε1-[(4S)-4-carboxy-4-(19-carboxynonadecanoylamino)butanoyl]-[Asp14,Arg17,Pro21,Pro27,Pro34,Glu35]-h-amylin (peptide)
peptide: K([γGlu-C20 diacid])CNTATCATQRLADFLRHSSPNFGAIPSSTNVGPETY-NH2
modifications: disulfide 2-7; N-terminus assumed
SMILES: CC[C@H](C)[C@H](NC(=O)[C@H](C)NC(=O)CNC(=O)[C@H](Cc1ccccc1)NC(=O)[C@H](CC(N)=O)NC(=O)[C@@H]1CCCN1C(=O)[C@H](CO)NC(=O)[C@H](CO)NC(=O)[C@H](Cc1c[nH]cn1)NC(=O)[C@H](CCCNC(=N)N)NC(=O)[C@H](CC(C)C)NC(=O)[C@H](Cc1ccccc1)NC(=O)[C@H](CC(=O)O)NC(=O)[C@H](C)NC(=O)[C@H](CC(C)C)NC(=O)[C@H](CCCNC(=N)N)NC(=O)[C@H](CCC(N)=O)NC(=O)[C@@H](NC(=O)[C@H](C)NC(=O)[C@@H]1CSSC[C@H](NC(=O)[C@@H](N)CCCCNC(=O)CC[C@H](NC(=O)CCCCCCCCCCCCCCCCCCC(=O)O)C(=O)O)C(=O)N[C@@H](CC(N)=O)C(=O)N[C@@H]([C@@H](C)O)C(=O)N[C@@H](C)C(=O)N[C@@H]([C@@H](C)O)C(=O)N1)[C@@H](C)O)C(=O)N1CCC[C@H]1C(=O)N[C@@H](CO)C(=O)N[C@@H](CO)C(=O)N[C@H](C(=O)N[C@@H](CC(N)=O)C(=O)N[C@H](C(=O)NCC(=O)N1CCC[C@H]1C(=O)N[C@@H](CCC(=O)O)C(=O)N[C@H](C(=O)N[C@@H](Cc1ccc(O)cc1)C(N)=O)[C@@H](C)O)C(C)C)[C@@H](C)O
In the case of B2, the IC50 in the assay with rat calcitonin receptor [1] was 18.6 nM; in assay [3], 0.3 nM. Besides, in the assay with rat calcitonin receptor [2], the “Ratio rCT/rAmylin binding” value is 62. For the same molecule, the “Ratio hCT/hAmylin binding” value in assay [4] came out at 16.7.

B3: N^ε1-[(4S)-4-carboxy-4-[[(4S)-4-carboxy-4-(19-carboxynonadecanoylamino)butanoyl]amino]butanoyl]-[Asp14,Arg17,Pro21,Pro27,Pro34,Glu35]-h-amylin (peptide)
peptide: K([γGlu-γGlu-C20 diacid])CNTATCATQRLADFLRHSSPNFGAIPSSTNVGPETY-NH2
modifications: disulfide 2-7; N-terminus assumed
SMILES: CC[C@H](C)[C@H](NC(=O)[C@H](C)NC(=O)CNC(=O)[C@H](Cc1ccccc1)NC(=O)[C@H](CC(N)=O)NC(=O)[C@@H]1CCCN1C(=O)[C@H](CO)NC(=O)[C@H](CO)NC(=O)[C@H](Cc1c[nH]cn1)NC(=O)[C@H](CCCNC(=N)N)NC(=O)[C@H](CC(C)C)NC(=O)[C@H](Cc1ccccc1)NC(=O)[C@H](CC(=O)O)NC(=O)[C@H](C)NC(=O)[C@H](CC(C)C)NC(=O)[C@H](CCCNC(=N)N)NC(=O)[C@H](CCC(N)=O)NC(=O)[C@@H](NC(=O)[C@H](C)NC(=O)[C@@H]1CSSC[C@H](NC(=O)[C@@H](N)CCCCNC(=O)CC[C@H](NC(=O)CC[C@H](NC(=O)CCCCCCCCCCCCCCCCCCC(=O)O)C(=O)O)C(=O)O)C(=O)N[C@@H](CC(N)=O)C(=O)N[C@@H]([C@@H](C)O)C(=O)N[C@@H](C)C(=O)N[C@@H]([C@@H](C)O)C(=O)N1)[C@@H](C)O)C(=O)N1CCC[C@H]1C(=O)N[C@@H](CO)C(=O)N[C@@H](CO)C(=O)N[C@H](C(=O)N[C@@H](CC(N)=O)C(=O)N[C@H](C(=O)NCC(=O)N1CCC[C@H]1C(=O)N[C@@H](CCC(=O)O)C(=O)N[C@H](C(=O)N[C@@H](Cc1ccc(O)cc1)C(N)=O)[C@@H](C)O)C(C)C)[C@@H](C)O
Turning to B3, the IC50 came out at 31.9 nM in the assay with rat calcitonin receptor [1] and 0.324 nM in assay [3]. Further, the “Ratio rCT/rAmylin binding” value with rat calcitonin receptor [2] was 98.5. Moreover, the “Ratio hCT/hAmylin binding” value in assay [4] turned out to be 49.8.

Turning to K([γGlu-γGlu-C20 diacid])CNTATCATQRLADFLRHSSPNFGAIPSSTNVGPRTY-NH2 (disulfide 2-7, also called compound 130), the IC50 came out at 223 nM with rat calcitonin receptor [1] and 0.93 nM in assay [3]. Moreover, the “Ratio rCT/rAmylin binding” value with rat calcitonin receptor [2] is 240. Further, in assay [4], the “Ratio hCT/hAmylin binding” value was 280.

The values above are taken from patent publication US20140087995A1 (published 2014).
